Biological target: T1, endogenous full-length myocilin from conditioned media of primary human TM cells (Homo sapiens, UniProt Q99972)
T1 construct: myocilin, human, endogenous, secreted into the medium; called full-length (~55 kDa); also called endogenous full-length myocilin (~55 kDa)
Assay: immunoprecipitation; antibodies incubated with 15 mL conditioned medium of primary human TM cells without enrichment, or HBS buffer as control; myocilin found by Western blot
Conditions: one partner purified

T1 sequence (Q99972 33-504): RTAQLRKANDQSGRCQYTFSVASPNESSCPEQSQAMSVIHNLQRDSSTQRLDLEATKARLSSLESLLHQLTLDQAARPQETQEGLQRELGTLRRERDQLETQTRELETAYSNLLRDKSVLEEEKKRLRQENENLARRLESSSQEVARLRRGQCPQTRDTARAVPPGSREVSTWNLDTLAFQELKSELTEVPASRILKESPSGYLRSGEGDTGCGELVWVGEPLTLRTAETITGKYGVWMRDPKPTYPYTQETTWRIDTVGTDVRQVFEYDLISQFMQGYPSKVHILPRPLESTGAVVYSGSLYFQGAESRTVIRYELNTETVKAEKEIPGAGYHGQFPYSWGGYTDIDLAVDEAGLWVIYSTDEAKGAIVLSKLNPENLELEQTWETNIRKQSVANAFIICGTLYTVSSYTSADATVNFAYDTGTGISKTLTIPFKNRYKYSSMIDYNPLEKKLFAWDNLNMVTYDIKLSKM

binding result: binds
B1: anti-OLF1 chimeric IgG (murine variable domains, human IgG1/kappa constant domains) (antibody, V domains shown)
VH: QVQLQQSGPELVKPGASVKISCKTSGYTFTENTMHWVRQSHGKSLEWIGGIHPNNIGSTYNQKFKGKATLTVDKSSSTAYMELRSLTSEDSAVYYCTRGATAPFAYWGQGTLVTVSA
VL: DIVMTQTPLSLPVSLGDQASISCRSSQSIVHSNGNTYLHWYQQKSGQSPKLLIYKVSNRFSGVPDRFSGSGSGTDFTLKISRVEAEDLGVYFCSQSTHVPPTFGGGTKLEIK
